# Laboratory results as given in patent US20190144544A1 (Eli Lilly, published 2019).
# Tests used:
# cell surface PD-L1 = cell surface PD-L1 (human, UniProt Q9NZQ7 19-290); assay: cell-based or functional assay
# human PD-L1 monomer = target: T1, human PD-L1 monomer (human, UniProt Q9NZQ7 19-238, limits assumed); assay: SPR (Biacore T200) at 20, 25, 37 and 42 °C, Fab as analyte over immobilised human PD-L1 monomer; van't Hoff analysis of the association phase
# T1 construct: Amine-coupled to the sensor chip; also called hPD-L1 monomer; hPD-L1
# T1 sequence (Q9NZQ7 19-238 limits assumed): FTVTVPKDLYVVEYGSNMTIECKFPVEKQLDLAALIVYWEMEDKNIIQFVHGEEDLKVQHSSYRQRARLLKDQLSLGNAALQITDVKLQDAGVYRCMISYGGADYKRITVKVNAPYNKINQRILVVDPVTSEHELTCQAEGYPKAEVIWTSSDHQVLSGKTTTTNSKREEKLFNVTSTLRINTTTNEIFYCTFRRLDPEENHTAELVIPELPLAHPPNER
# Method: The sample gradients are prepared in the running buffer HBS-EP (0.01M HEPES pH 7.4, 0.15M NaCl, 3 mM EDTA, 0.005% v/v surfactant P20). The binding experiments are repeated at four different temperatures: 20° C., 25° C., 37° C. and 42° C. Throughout the kinetics experiments, the flow rate is maintained at 30 μl/min and the association/contact time at 180 sec for all three Fabs. […] After dissociation, a 0.75 M NaCl, 25 mM NaOH solution regenerates the immobilized hPD-L1, and then the surface is stabilized for 30 sec with the running buffer. […] The binding kinetics are analyzed using the Biacore T200 Evaluation software (Version 3.0). Data is referenced to a blank flow cell, and the data is fitted to the 1:1 Langmuir binding model.
# Steady-state, association, and dissociation are the three binding phases analyzed. MATLAB is utilized for the linear regression analysis.
# cell surface PD-L1, sequence (Q9NZQ7 19-290 limits assumed): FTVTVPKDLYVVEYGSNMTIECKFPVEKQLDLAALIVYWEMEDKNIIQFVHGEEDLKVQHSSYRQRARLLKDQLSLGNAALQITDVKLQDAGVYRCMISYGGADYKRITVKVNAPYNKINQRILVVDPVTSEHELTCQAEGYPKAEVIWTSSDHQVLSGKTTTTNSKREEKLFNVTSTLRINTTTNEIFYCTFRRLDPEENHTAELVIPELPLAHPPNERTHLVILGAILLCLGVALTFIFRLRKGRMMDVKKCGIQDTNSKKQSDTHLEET
"IFN-γ secretion fold change vs. IgG control, mixed lymphocyte reaction, 0.01 nM antibody (cell surface PD-L1) [fold]","IFN-γ secretion fold change vs. IgG control, mixed lymphocyte reaction, 0.05 nM antibody (cell surface PD-L1) [fold]","IFN-γ secretion fold change vs. IgG control, mixed lymphocyte reaction, 0.27 nM antibody (cell surface PD-L1) [fold]","IFN-γ secretion fold change vs. IgG control, mixed lymphocyte reaction, 1.3 nM antibody (cell surface PD-L1) [fold]","IFN-γ secretion fold change vs. IgG control, mixed lymphocyte reaction, 6.7 nM antibody (cell surface PD-L1) [fold]","IFN-γ secretion fold change vs. IgG control, mixed lymphocyte reaction, 33.3 nM antibody (cell surface PD-L1) [fold]",ΔSon (human PD-L1 monomer),Binder
1.25,1.95,2.68,4.13,4.11,5.71,–,"Antibody A (antibody, human IgG1, lambda, V domains shown) VH: QVQLVQSGAEVKKPGSSVKVSCKASGGTFSSYAISWVRQAPGQGLEWMGGIIPIFGTANYAQKFQGRVTITADKSTSTAYMELSSLRSEDTAVYYCARSPDYSPYYYYGMDVWGQGTTVTVSS VL: QSVLTQPPSASGTPGQRVTISCSGSSSNIGSNTVNWYQQLPGTAPKLLIYGNSNRPSGVPDRFSGSKSGTSASLAISGLQSEDEADYYCQSYDSSLSGSVFGGGIKLTVLG"
–,–,–,–,–,–,-26,"Antibody A-Fab (Fab, V domains shown, CH1 and the lambda constant domain are not specified for the Fab; also called Fab of Antibody A) VH: QVQLVQSGAEVKKPGSSVKVSCKASGGTFSSYAISWVRQAPGQGLEWMGGIIPIFGTANYAQKFQGRVTITADKSTSTAYMELSSLRSEDTAVYYCARSPDYSPYYYYGMDVWGQGTTVTVSS VL: QSVLTQPPSASGTPGQRVTISCSGSSSNIGSNTVNWYQQLPGTAPKLLIYGNSNRPSGVPDRFSGSKSGTSASLAISGLQSEDEADYYCQSYDSSLSGSVFGGGIKLTVLG"
